Data taken from paper PMC4145799, “Assembly principles of a unique cage formed by hexameric and decameric E. coli proteins” (eLife, 2014).

B1: inducible lysine decarboxylase LdcI (enzyme, Escherichia coli)
chain: MNVIAILNHMGVYFKEEPIRELHRALERLNFQIVYPNDRDDLLKLIENNARLCGVIFDWDKYNLELCEEISKMNENLPLYAFANTYSTLDVSLNDLRLQISFFEYALGAAEDIANKIKQTTDEYINTILPPLTKALFKYVREGKYTFCTPGHMGGTAFQKSPVGSLFYDFFGPNTMKSDISISVSELGSLLDHSGPHKEAEQYIARVFNADRSYMVTNGTSTANKIVGMYSAPAGSTILIDRNCHKSLTHLMMMSDVTPIYFRPTRNAYGILGGIPQSEFQHATIAKRVKETPNATWPVHAVITNSTYDGLLYNTDFIKKTLDVKSIHFDSAWVPYTNFSPIYEGKCGMSGGRVEGKVIYETQSTHKLLAAFSQASMIHVKGDVNEETFNEAYMMHTTTSPHYGIVASTETAAAMMKGNAGKRLINGSIERAIKFRKEIKRLRTESDGWFFDVWQPDHIDTTECWPLRSDSTWHGFKNIDNEHMYLDPIKVTLLTPGMEKDGTMSDFGIPASIVAKYLDEHGIVVEKTGPYNLLFLFSIGIDKTKALSLLRALTDFKRAFDLNLRVKNMLPSLYREDPEFYENMRIQELAQNIHKLIVHHNLPDLMYRAFEVLPTMVMTPYAAFQKELHGMTEEVYLDEMVGRINANMILPYPPGVPLVMPGEMITEESRPVLEFLQMLCEIGAHYPGFETDIHGAYRQADGRYTVKVLKEESKK
notes: Inducible lysine decarboxylase LdcI of Escherichia coli; decamer of two pentameric rings; crystal structure pdb 3N75; also called acid stress-inducible lysine decarboxylase; source: E. coli CF1693 bearing pT7-322-Tetr, from pET22b, purified (Ni-NTA, MonoQ, Superdex S200); not shown: 24 amino acid linker containing 6xHis-tag, C-terminal, kept; copies: 10

Assays:
[1] = target: the molecule itself; assay: cryo-EM structure; LdcI–RavA complex, 11 Å; 1.26 mg/ml LdcI mixed with 0.94 mg/ml RavA, 15 min at room temperature, 25 mM Mes pH 6.5, 200 mM NaCl, 3 mM ADP, 0.8 mM PLP, 1 mM DTT; no cross-linking; D5 symmetry imposed
[2] = target: B1; assay: as above; details: both partners purified
[3] = target: the molecule itself; assay: cryo-EM structure; LdcI-LARA complex, 7.5 Å; 7.3 µM LdcI with 73 µM LARA (1:10), 15 min at room temperature, 50 mM Mes pH 6.5, 100 mM NaCl, 0.2 mM PLP, 1 mM DTT, 0.01% glutaraldehyde; D5 symmetry imposed

| stoichiometry N [2] | Binder | stoichiometry N [1] | stoichiometry N [3] |
| --- | --- | --- | --- |
| 1.5 RavA monomers per LdcI monomer | AAA+ ATPase RavA (enzyme, RavA of Escherichia coli, MoxR family AAA+ ATPase; crystal structure pdb 3NBX; The purification is told for the RavA mutants ('as previously described', El Bakkouri et al., 2010); also called MoxR AAA+ ATPase RavA; source: E. coli BL21-(DE3) Gold pLysS, from p11 plasmid, purified (Ni-NTA, TEV, MonoS, Superdex S200); not shown: 6xHis-tag, N-terminal, cleaved) not shown | 6 | – |
| – | B1 | – | 10 |
